Assay results from patent publication US12371675B2, “Process and microorganism for synthesis of adipic acid from carboxylic acids” (THE GOVERNING COUNCIL OF THE UNIVERSITY OF TORONTO, priority 2015, dated 2025).

Experiments:
[1] = substrate: O=C(O)C=CCCC(=O)O; test: Kinetics of purified EREDCA, NADH oxidation at 340 nm, anaerobic; type: biochemical, Clostridium acetobutylicum DSM 1731; settings: other: 2-hexenedioic acid in 0.25 mM isopropanol, 2.5 to 35 mM, sigmoidal kinetics, pH 7.0, 30.0 °C
Procedure: (§1) The C═C reducing activity of EREDs was examined. Enzyme activity of purified EREDs was measured spectrophotometrically in 96-well plates by following incubation for 3-5 min at 30° C. in the anaerobic chamber as described in M. Buhler, H. Simon, Hoppe-Seyler's Zeitschrift fur Physiologische Chemie 1982, 363, 609-625. Buffers and reagents were degassed and sparged with Ar. Reaction mixture contained potassium phosphate (100 mM and pH 7.0), NADH (0.5 mM), indicated substrates, and proteins (0.1-50 μg) in a final volume of 200 μL. Enzyme reactions were monitored by following the decrease in absorbance at 340 nm (ε340 nm=6,220/M·cm) due to oxidation of NADH to NAD+.
(§2) For in vitro biochemical characterization, enzyme activities of purified EREDs were measured with 2-hexenedioic acid, cis-cis-muconic acid, trans-trans muconic acid, trans-cinnamic acid, trans-2-methyl-2-butenoic acid, trans-2-butenoic acid, acrolein, 2-cyclohexen-1-one, and 3-methyl-2-cyclohexenone. […] [Feng, J. et al. Discovery and Characterization of BlsE, a Radical S-Adenosyl-L-methionine Decarboxylase Involved in the Blasticidin S Biosynthetic Pathway. PLoS ONE 8 (2013)].
(§3) To increase the dissolved substrate concentration, 2-hexenedioic acid was dissolved in a reaction mixture containing […] (final concentration) isopropanol, and kinetic constants of EREDBC and EREDCA were determined.

[2] = substrate: O=C(O)/C=C/c1ccccc1; test: as above; type: biochemical, Clostridium acetobutylicum DSM 1731; settings: other: trans-cinnamic acid, pH 7.0, 30° C., anaerobic
Procedure: as §1, §2, §3

B1: Clostridium acetobutylicum DSM 1731 2-enoate reductase EREDCA, SEQ ID NO: 2 (Clostridium acetobutylicum ATCC 824) (protein)
chain: MNKYKKLFEPIKIGKCEIKNRFALAPMGPLGLADSEGGFNQRGIDYYTERAKGGTGLIITGVTFVDNEVEEHGMPNCPCPTHNPVQFVRTGREMTERIHAYNSKVFLQMSGGFGRVTIPTNLGEFPPVAPSPIQHRWLDKTCRELTVDEIKSIVKKFGEGAFNAKRAGFDGVQIHAVHEGYLIDQFAISLFNHRTDEYGGSLENRLRFAREIVEEIKNRCGEDFPVTLRYSPKSFIKDLRDGALPGEEFVEKGRDLDEGVEAAKLLVSYGYDALDTDVGSYDSWWWSHPPMYQEKGLYRKYAKLMKDTVDVPVICAGRMDDPDMALEAVENGTCDVISLGRPLLADPDYVNKLRSNKCKSIRPCISCQEGCMGRVQHYSMLNCAVNPQACKERANSLTPIIKSKKVLIVGGGVAGCEAARVLALRGHEPVLYEKSNRLGGNLIPGGAPSFKEDDIALADWYTNTLKELNVEVNLNSEVTKEQILNSKFDTVIVATGSTPKVFPLGDDEKVFTAAEVLLGQKDPGETTVVVGGGLVGCELALDLAKKGKKVTIVEALNKILALNGPLCSANSEMLQKLIPFNGIDVKANSKVKGYKNGLLKMETENGIEELPCDSVILSVGYKEENSLYKELEFEIPEIYLLGDARKVSNIMYGIWDAFEVANHI
- Km [1]: 20.47 mM
- Km [2]: 0.17 mM
- kcat [2]: 5.2 s⁻¹
